Positions count from the first letter of the chain named.
Columns and labels:
Assay in all cases: cell-based or functional assay
[1] = molecular target: T1, factor VIIIa A1/A3C1C2 dimer, H317A (human, UniProt P00451 20-391; P00451 1709-2351)
T1 chain 1: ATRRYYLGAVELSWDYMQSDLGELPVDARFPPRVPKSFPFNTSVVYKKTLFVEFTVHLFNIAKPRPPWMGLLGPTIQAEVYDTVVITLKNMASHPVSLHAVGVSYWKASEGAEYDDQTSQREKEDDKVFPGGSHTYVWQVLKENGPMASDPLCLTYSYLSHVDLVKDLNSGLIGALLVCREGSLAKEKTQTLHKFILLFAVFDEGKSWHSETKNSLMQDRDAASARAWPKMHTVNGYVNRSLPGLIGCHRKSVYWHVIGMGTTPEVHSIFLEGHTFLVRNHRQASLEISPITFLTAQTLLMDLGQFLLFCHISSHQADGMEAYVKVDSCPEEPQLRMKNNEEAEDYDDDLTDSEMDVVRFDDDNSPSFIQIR
T1 chain 2: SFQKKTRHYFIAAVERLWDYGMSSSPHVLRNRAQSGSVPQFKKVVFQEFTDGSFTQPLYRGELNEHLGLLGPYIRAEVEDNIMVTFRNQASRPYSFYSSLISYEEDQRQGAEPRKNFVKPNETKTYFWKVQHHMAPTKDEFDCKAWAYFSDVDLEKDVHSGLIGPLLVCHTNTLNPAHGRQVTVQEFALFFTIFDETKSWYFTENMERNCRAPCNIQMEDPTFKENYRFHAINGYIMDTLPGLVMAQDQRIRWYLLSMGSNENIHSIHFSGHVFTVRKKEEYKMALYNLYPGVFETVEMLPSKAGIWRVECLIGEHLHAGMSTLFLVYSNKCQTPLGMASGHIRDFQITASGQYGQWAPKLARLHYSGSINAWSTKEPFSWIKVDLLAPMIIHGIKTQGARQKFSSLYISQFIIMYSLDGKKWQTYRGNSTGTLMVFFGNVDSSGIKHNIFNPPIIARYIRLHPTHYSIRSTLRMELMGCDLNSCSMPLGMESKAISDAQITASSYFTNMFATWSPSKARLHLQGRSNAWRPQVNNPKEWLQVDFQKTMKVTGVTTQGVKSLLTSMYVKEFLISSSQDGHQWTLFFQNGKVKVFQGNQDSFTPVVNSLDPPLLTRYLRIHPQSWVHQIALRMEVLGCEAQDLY

[2] = molecular target: T2, factor VIIIa A1/A3C1C2 dimer, S1791A (human, UniProt P00451 20-391; P00451 1709-2351)
T2 sequence 1: T1 chain 1 with A317H
T2 sequence 2: T1 chain 2 with S102A

[3] = molecular target: T3, factor VIIIa A1/A3C1C2 dimer, D1795A (human, UniProt P00451 20-391; P00451 1709-2351)
T3 sequence 1: T1 chain 1 with A317H
T3 sequence 2: T1 chain 2 with D106A

[4] = molecular target: T4, factor VIIIa A1/A3C1C2 dimer, wild type (human, UniProt P00451 20-391; P00451 1709-2351)
T4 sequence 1: T1 chain 1 with A317H
T4 sequence 2: T1 chain 2

B1: factor VIIIa A2 subunit, wild type (other)
chain: SVAKKHPKTWVHYIAAEEEDWDYAPLVLAPDDRSYKSQYLNNGPQRIGRKYKKVRFMAYTDETFKTREAIQHESGILGPLLYGEVGDTLLIIFKNQASRPYNIYPHGITDVRPLYSRRLPKGVKHLKDFPILPGEIFKYKWTVTVEDGPTKSDPRCLTRYYSSFVNMERDLASGLIGPLLICYKESVDQRGNQIMSDKRNVILFSVFDENRSWYLTENIQRFLPNPAGVQLEDPEFQASNIMHSINGYVFDSLQLSVCLHEVAYWYILSIGAQTDFLSVFFSGYTFKHKMVYEDTLTLFPFSGETVFMSMENPGLWILGCHNSDFRNRGMTALLKVSSCDKNTGDYYEDSYEDISAYLLSKNNAIEPR
In the case of B1, the “Factor VIIIa decay rate relative to wild type, FIXa (+)” value [1] is reported as 1.28 relative to wild type, the “Factor VIIIa decay rate, FIXa (+)” value [1] is reported as 0.0145 min⁻¹ and the “Factor VIIIa decay rate relative to wild type, FIXa (+)” value [2] is reported as 1.85 relative to wild type. For the same binder, the “Factor VIIIa decay rate, FIXa (+)” value [2] was 0.0208 min⁻¹, the “Factor VIIIa decay rate relative to wild type, FIXa (+)” value [3] was 2.11 relative to wild type and the “Factor VIIIa decay rate, FIXa (+)” value [3] was 0.0238 min⁻¹. The “Factor VIIIa decay rate relative to wild type, FIXa (+)” value [4] was 1 relative to wild type, the “Factor VIIIa decay rate relative to wild type, FIXa (-)” value [4] was 1 relative to wild type and the “Factor VIIIa decay rate, FIXa (+)” value [4] was 0.0113 min⁻¹. The “Factor VIIIa decay rate, FIXa (-)” value [4] was 0.0631 min⁻¹.

Reference: patent US20090118184A1 (UNIVERSITY OF ROCHESTER, published 2009)
